Primed or numbered codes have the meaning given here. Where no end group is shown, it is not given here. FITC′ = fluorescein
Assays:
MjYcaO = settings: cited from earlier work
M. acetivorans TfuA = settings: FP; 25 °C, 1 h; ref Mahanta et al., 2018; cited from earlier work
[1] = molecular target: FITC-labeled M. acetivorans McrA 13-mer peptide (GG-…) (Methanosarcina acetivorans); assay: fluorescence polarisation
[2] = molecular target: MBP-tagged Methanosarcina acetivorans YcaO (Methanosarcina acetivorans); assay: fluorescence polarisation
[3] = molecular target: T1, MBP-tagged Methanocaldococcus jannaschii YcaO (Methanocaldococcus jannaschii, UniProt Q58494 1-385); assay: fluorescence polarisation
T1 sequence (looked up): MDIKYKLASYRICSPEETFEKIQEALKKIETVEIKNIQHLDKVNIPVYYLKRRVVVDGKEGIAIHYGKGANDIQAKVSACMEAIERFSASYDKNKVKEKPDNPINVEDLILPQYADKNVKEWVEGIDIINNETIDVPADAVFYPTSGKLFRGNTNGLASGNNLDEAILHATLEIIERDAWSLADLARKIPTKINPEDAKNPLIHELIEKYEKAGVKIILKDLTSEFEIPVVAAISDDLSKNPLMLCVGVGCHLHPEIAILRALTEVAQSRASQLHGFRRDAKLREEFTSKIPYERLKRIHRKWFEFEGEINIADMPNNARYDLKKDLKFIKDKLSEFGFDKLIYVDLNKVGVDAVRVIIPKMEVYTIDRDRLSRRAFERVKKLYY

Question: What does the source list for `Nc1ncnc2c1ncn2[C@@H]1O[C@H](COP(=O)(O)OP(=O)(O)OP(=O)(O)O)[C@@H](O)[C@H]1O` [ATP]?
Answer: ATP-derived by-products of thioamidation (MjYcaO; 31P NMR, YcaO-catalyzed thioamidation, ref Mahanta et al., 2018): ADP and phosphate (Pi) were found to be the by-products; ATP hydrolysis in the absence of the McrA peptide substrate (MjYcaO; absence of McrA peptide, ref Dong et al., 2019): YcaO can hydrolyze ATP to ADP and Pi unproductively

Question: With GG-RLGFFGFDLQD [native McrA peptide] as the molecule, how does the binding (M. acetivorans TfuA) read?
Answer: not detected

Question: With “MBP-tagged Methanosarcina acetivorans YcaO (enzyme)” as the molecule, how does the Kd [1] read?
Answer: 700 nM

B1: MBP-tagged McrA peptide, Ala substitution of Asp467 (peptide)
chain: RLGFFGFALQD
Question: For B1, which fold reduction of affinity against the wild-type peptide [2] is on record?
Answer: 12 fold

B2: MBP-tagged McrA peptide, Ala substitution of Leu468 (peptide)
chain: RLGFFGFDAQD
Question: Which fold reduction of affinity against the wild-type peptide [2] does the source give for B2 here?
Answer: 14 fold

B3: MBP-tagged McrA peptide, Ala substitution of Gln469 (peptide)
chain: RLGFFGFDLAD
Question: For B3, which fold reduction of affinity against the wild-type peptide [2] is on record?
Answer: 24 fold

B4: wild-type MBP-tagged McrA peptide (M. acetivorans McrA 11-mer) (peptide)
chain: RLGFFGFDLQD
Question: With B4 as the molecule, how does the Ki [2] read?
Answer: 700 nM

B5: MBP-tagged McrA peptide, Ala substitution of Leu461 (peptide)
chain: RAGFFGFDLQD
Question: Which fold reduction of affinity against the wild-type peptide [2] does the source give for B5 here?
Answer: 28 fold

B6: MBP-tagged McrA peptide, Ala substitution of Gly462 (peptide)
chain: RLAFFGFDLQD
Question: For B6, which fold reduction of affinity against the wild-type peptide [2] is on record?
Answer: 14 fold

B7: MBP-tagged McrA peptide, Ala substitution of Phe464 (peptide)
chain: RLGFAGFDLQD
Question: For B7, which fold reduction of affinity against the wild-type peptide [2] is on record?
Answer: 11 fold

B8: MBP-tagged McrA peptide, Ala substitution of Gly465 (peptide)
chain: RLGFFAFDLQD
Question: With B8 as the molecule, how does the fold reduction of affinity against the wild-type peptide [2] read?
Answer: 14 fold

B9: FITC-labeled M. jannaschii McrA 13-mer peptide (GG-RLGFYGYDLQD) (peptide)
peptide: {FITC′}-GGRLGFYGYDLQD
Question: Which Kd [3] does the source give for B9 here?
Answer: 1100 nM

Reference: publication PMC8328229 (Methods in enzymology, 2021)
